# B1: TA106 Fab (humaneered anti-factor B Fab, expressed in E. coli) (Fab, V domains shown)
# VH: QVQLVQSGAEVKKPGASVKVSCKASGYSFTDYYMTWVRQAPGQGLEWMGWINPNSGGTKYAQKFQGRVTMTRDTSISTAYMELSRLRSDDTAVYYCARGYYANSAWFAYWGQGTLVTVSS
# VL: DIVMTQSPDSLAVSLGERATINCKSSQSLLNSSTSKNYLAWYQQKPGQPPKLLIYWASTRESGVPDRFSGSGSGTDFTLTISSLQAEDVAVYYCKQVYNLPWTFGQGTKLEIKR
# notes: Fab made in E. coli by Xoma, not glycosylated; also called Fab TA106; TA106 wild type Fab
# Legend:
# [1] = target: T1, human factor B (purified, Complement Technology A135) (human, UniProt P00751 26-764); assay: BLI (Octet), binding to factor B (summary table)
# T1 construct: also called fB; human complement factor B
# Experimental: (§1) Binding kinetics of TA106 and TA106 S33A Fab (CLS016) to Factor B were analyzed using a FortéBio® Octet® biosensor (FortéBio, Inc.) in a similar protocol as described previously. In one exemplary experiment, Factor B (Complement Technology) was biotinylated at a 1:10 ratio and coupled to a streptavidin biosensor at a concentration of 5 μg/mL for a loading time of 600 seconds. Biosensors were briefly dipped in 1×KB as a wash for 30 seconds. Associations with a titration series of Fab with a concentration range from 100 to 3 nM (diluted in 1×KB) were carried out for 600 seconds. Fabs were dissociated from the biosensor by immersing the biosensor in 1×KB during the 600 second dissociation phase. As depicted in FIGS. 19 and 20, both TA106 Fab and TA106-derivative S33A Fab (CLS016) bound to Factor B at various concentrations, resulting in nearly identical association and dissociation profiles. Kinetic assessments using partial local fit parameters yielded identical values for KD/kₐ/Kd at each concentration tested.
# [2] = target: T1, human factor B (purified, Complement …); assay: SPR, factor B on surface, Fab flowed (summary table)
# Excerpt: (§2) Binding kinetics of TA106 Fab and variant S33A Fab (CLS016) were further characterized using Surface Plasmon Resonance (SPR) technology. In one exemplary experiment, both Fabs were captured on chips of a Biacore 3000 analyzer and samples of human factor B of different concentrations were flowed as the antigen over the surface to model soluble human factor B binding, using protocols recommended by the manufacturer and described previously in the instant disclosure. […] In another exemplary experiment, the affinities of both Fabs were also measured by reversing the orientation of the previous experiment. Specifically, human factor B was directly coupled to one flow cell of a CM5 chip. The second flow cell was used as a blank reference with no coupled ligand. CLS016 or TA106 Fab was then flowed on both flow cells. Concentrations between 0.19 to 25 nM were run with duplicates. The surface was regenerated between each cycle.
# [3] = target: T1, human factor B (purified, Complement …); assay: ELISA, plate coated with human factor B, anti-human kappa light chain HRP
# Experimental: The binding activities of these mAbs towards factor B were analyzed by ELISA using standard protocols. In one exemplary experiment, MaxiSorp™ ELISA plates (Nunc, #439454, Rochester, N.Y.) were coated with 50 μL of human factor B (Complement Technology, A135, 1 mg/mL, lot 14c) at a concentration of 0.5 μg/mL in carbonate coating buffer (0.795 g carbonate+1.46 g bicarbonate+1 mL 1% NaN₃ (final concentration of 0.002%) in 500 mL water, pH 9.6 (lot 02 August 10)). Plates then were covered with plate sealers and incubated at 37±1° C. for one hour. Following coating, wells were emptied of reagent and washed in a BioTek® ELx405 plate washer (BioTek, Winooski, Vt.) for three times with 200 μL wash solution (PBS/0.05% Tween 20) per well. Following washes, wells were blocked with 100 μL of BSA (1% w/v) and incubated for one hour at room temperature. Wells were then washed again as described above. Fifty microliter samples (i.e., TA106 Fab, CLS011 mAb, CLS012 mAb, and CLS013 mAb) were then added to wells and incubated for one hour at room temperature. […] The plate was read on a Benchmark™ microplate reader (Bio-Rad Laboratories, Hercules, Calif.) at 450 nm. Standard curves were plotted with 4 parameter fit with DeltaSoft® 1.6 software, and sample concentrations were determined from the standard curves.
# [4] = target: T1, human factor B (purified, Complement …); assay: SPR (Biacore 3000), Fab captured on chip, soluble human factor B 3.1-100 nM
# Excerpt: as §2
# [5] = target: T1, human factor B (purified, Complement …); assay: BLI (Octet), biotinylated factor B on streptavidin biosensor, Fab at 50 nM
# Experimental: as §1
# [6] = target: T1, human factor B (purified, Complement …); assay: BLI (Octet), biotinylated factor B on streptavidin biosensor, Fab at 12.5 nM
# Experimental: as §1
# [7] = target: T1, human factor B (purified, Complement …); assay: BLI (Octet), biotinylated factor B on streptavidin biosensor, Fab at 3.13 nM
# Experimental: as §1
# [8] = target: T1, human factor B (purified, Complement …); assay: BLI (Octet), biotinylated factor B on streptavidin biosensor, Fab at 6.25 nM
# Experimental: as §1
# [9] = target: T1, human factor B (purified, Complement …); assay: SPR (Biacore), factor B coupled to the chip, free TA106 Fab 0.19-25 nM flowed; Chi2 1.58
# Excerpt: as §2
# [10] = target: T1, human factor B (purified, Complement …); assay: SPR (Biacore), factor B coupled to the chip, free TA106 Fab 0.19-25 nM flowed; Chi2 1.58 (the text rounds to 1.2 nM)
# Excerpt: as §2
# T1 sequence (P00751 26-764): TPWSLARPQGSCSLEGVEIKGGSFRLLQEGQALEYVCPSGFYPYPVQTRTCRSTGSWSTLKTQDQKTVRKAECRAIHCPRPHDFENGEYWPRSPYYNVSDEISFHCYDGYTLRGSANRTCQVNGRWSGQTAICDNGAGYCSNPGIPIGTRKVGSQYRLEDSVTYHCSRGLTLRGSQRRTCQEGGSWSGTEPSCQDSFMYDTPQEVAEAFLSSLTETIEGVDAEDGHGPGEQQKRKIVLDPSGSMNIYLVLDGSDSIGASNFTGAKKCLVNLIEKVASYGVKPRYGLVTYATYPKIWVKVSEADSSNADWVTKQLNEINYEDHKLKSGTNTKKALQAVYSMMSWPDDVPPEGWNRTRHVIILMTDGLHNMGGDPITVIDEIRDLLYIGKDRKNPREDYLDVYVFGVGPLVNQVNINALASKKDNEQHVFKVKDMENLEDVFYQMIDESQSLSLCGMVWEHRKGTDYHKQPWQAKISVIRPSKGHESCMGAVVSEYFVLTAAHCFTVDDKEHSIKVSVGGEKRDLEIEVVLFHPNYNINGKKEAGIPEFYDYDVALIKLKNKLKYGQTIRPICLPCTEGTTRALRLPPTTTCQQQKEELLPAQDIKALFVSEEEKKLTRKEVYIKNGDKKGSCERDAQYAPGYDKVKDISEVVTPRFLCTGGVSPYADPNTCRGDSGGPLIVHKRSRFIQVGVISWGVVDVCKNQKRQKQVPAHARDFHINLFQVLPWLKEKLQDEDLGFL
binder,measurement,setting,value
B1,Kd,[1],20 to 30 nM
same,Kd,[2],1.5 nM
same,EC50,[3],0.57 nM
same,Kd,[4],~30.6 nM
same,Kd,[5],22.7 nM
same,koff,[5],0.0039 s⁻¹
same,kon,[5],172000 M⁻¹ s⁻¹
same,Kd,[6],29.8 nM
same,koff,[6],0.00324 s⁻¹
same,kon,[6],109000 M⁻¹ s⁻¹
same,Kd,[7],32.3 nM
same,koff,[7],0.00239 s⁻¹
same,kon,[7],74000 M⁻¹ s⁻¹
same,Kd,[8],41.6 nM
same,koff,[8],0.00294 s⁻¹
same,kon,[8],70600 M⁻¹ s⁻¹
same,koff,[9],0.00333 s⁻¹
same,kon,[9],2.84e+06 M⁻¹ s⁻¹
same,Kd,[10],1.17 nM

# Source: US20150166643A1 (Alexion, published 2015)
